In patent US20220002403A1:

Target: human ILT4 haplotype 5 expressed on mouse 3A9 T cells (human) (UniProt Q8N423)
Assay: cell-based or functional assay

Sequence of human ILT4 haplotype 5 expressed on mouse 3A9 T cells (human) (Q8N423 other isoform, or with tags, fused parts or gaps): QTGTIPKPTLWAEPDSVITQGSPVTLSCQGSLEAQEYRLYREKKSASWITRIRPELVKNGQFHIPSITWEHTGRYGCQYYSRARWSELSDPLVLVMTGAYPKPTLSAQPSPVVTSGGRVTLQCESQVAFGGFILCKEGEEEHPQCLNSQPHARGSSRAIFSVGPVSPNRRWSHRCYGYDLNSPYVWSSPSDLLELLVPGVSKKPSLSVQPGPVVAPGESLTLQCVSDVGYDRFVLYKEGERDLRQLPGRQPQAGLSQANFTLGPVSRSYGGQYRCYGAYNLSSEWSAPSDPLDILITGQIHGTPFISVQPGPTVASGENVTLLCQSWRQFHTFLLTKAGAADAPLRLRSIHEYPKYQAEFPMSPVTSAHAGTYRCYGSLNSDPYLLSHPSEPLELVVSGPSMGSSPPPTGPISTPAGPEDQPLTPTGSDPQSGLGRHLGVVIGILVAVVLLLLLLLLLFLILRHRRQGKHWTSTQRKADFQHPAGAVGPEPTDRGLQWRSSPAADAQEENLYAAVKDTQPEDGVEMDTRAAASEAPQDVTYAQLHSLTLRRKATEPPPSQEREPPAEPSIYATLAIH

B1: 1E1(G4) (antibody, human IgG4 S228P, lambda, V domains shown)
VH: EVQLQQWGAGLLKPSETLSLTCAVYGGSFSGYYWSWIRQPPGKGLEWIGEINHAGSTNYNPSLKSRVTISVDTSKNQFSLKLSSVTAADTAVYYCARLPTRWVTTRYFDLWGRGTLVTVSS
VL: ESVLTQPPSVSGAPGQRVTISCTGSSSNIGAGYDVHWYQQLPGTAPKLLIYGDSNRPSGVPDRFSVSKSGASASLAITGLQAEDEADYYCQSFDNSLSAYVFGGGTQLTVLG
B1 was tested, and the EC50 (IL-2 Repression Assay: rescue of IL-2 release from anti-CD3 stimulated ILT4 3A9 T cell transfectants, ELISA) was 0.43 µg/mL.
